# System: MS2 coat protein
# Assay: apparent KD of MS2 coat protein; designed switch direction (-1 OFF switch, 1 ON switch): -1; higher = weaker reporter binding
# How it was run: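 Each step of the titration lasted 0.8–1.5 h at the lowest concentration and 10–20 min at the highest. The protein, SNAP-549-labelled MS2 coat protein, went from 0.7 or 1.5 nM doubling to 3 µM over RNA switches transcribed on Illumina chips by stalled E. coli RNA polymerase. Normalised cluster fluorescence was curve-fitted, and the per-design median over clusters is given as apparent KD.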
# [1] = Eterna round: R95, input ligand: FMN 200 uM
# [2] = Eterna round: R95, input ligand: microRNA oligo, concentration not stated
# [3] = Eterna round: R95, input ligand: none
# [4] = input ligand: microRNA oligo, concentration not stated
Sequence,apparent KD of MS2 coat protein (input ligand: FMN 200 uM) [µM],apparent KD of MS2 coat protein (input ligand: none) [µM],apparent KD of MS2 coat protein [1] [µM],apparent KD of MS2 coat protein [2] [µM],apparent KD of MS2 coat protein [3] [µM],apparent KD of MS2 coat protein [4] [µM]
"AGUGUGAGGCAGGAUAUGCAAUUUGUAAGUAAUGCAGAAGGGUCUACAUGAGGAUCACCCAUGUGUGCGGUUGA [Ex6 #11] (Eterna round: R97, puzzle: Exclusion 6)",0.447,0.246,–,–,–,–
"GAGUGCUGAGGAUAUACAUGAGGAUCACCCAUGUGCUUCAGCUAGGAGACUAGCAUUCGUAGAAGGCAGUACUC [Mod of lroppy 22 - Jieux - Exclusion 3] (Eterna round: R97, puzzle: Exclusion 3)",0.0426,0.0147,–,–,–,–
"GGACCGUGAGGAUAUAGAGGUCGCGUCAUAGGGCGUGGUUACUAGAAGGCACAUGAGGAUCACCCAUGUUCAUC [Eternabot (L1) Solution 7] (Eterna round: R97, puzzle: Exclusion 4)",0.0504,0.0197,–,–,–,–
CUUAAGGCAGGAUAUGCUGUUUGUGACAUGAGGAUCACCCAUGUGAUGCAGUUUGGGUGUGCAGAAGGGCCUGAGU [JR_E5_Sub032] (puzzle: Exclusion 5),–,–,0.0964,0.0715,0.131,–
"UUCCUCACUUCUUUGACUCACAUGAGGAUCACCCAUGUAAUAUAGGAUAUGCAUUUUAUUUCUUUGCAGAAGGAUAUUAGUUUU [JR_ExcNG3_Sub088] (Eterna round: R96, puzzle: Exclusion NG 3)",–,–,–,–,–,0.0347
"AAAGGACGAUUAGGAUAUUCGGUUCAAGGUAAAGAAGAAGGAAUCGUUCCAUACUUAACAUGAGGAUCACCCAUGUGGGUCUAG [Eternabot solution 38] (Eterna round: R96, puzzle: Exclusion NG 1)",–,–,–,–,–,0.0255
"GUCAGCUCGUGAGGAUAUACAUGAGGAUCACCCAUGUGAUCAAUAGCAGCUUCGGCUGCAAUAAUGUAGAAGGCACGAGCUGAC [ENG2/8-C] (Eterna round: R96, puzzle: Exclusion NG 2)",0.0605,0.144,–,–,–,0.0762
"ACAUGUCAUCGAGGAUAUUGGACACAUGAGGAUCACCCAUGUACUCGGAGGCUCUACCAUGAGUUCGAGAAGGCGAUGUACAUU [Ex NG2 #77] (Eterna round: R96, puzzle: Exclusion NG 2)",0.542,0.23,–,–,–,0.256
"GCCUCGUCAGGAUAUCUCCACGUGAGCAAGGCUCACGGGCCAGAGAAGGGACUUGAGGAUCACCCAAGUAAAAC [Ritiatso] (Eterna round: R97, puzzle: Exclusion 4)",0.428,0.138,–,–,–,–
"UCUUGUUGUCCUUGAUAAUACAUGAGGAUCACCCAUGUUAUUUUGAUUAUGAUGUGUAAGUUUGUUGCUCGUUUUAU [JR_STOV1_Sub069] (Eterna round: R97, puzzle: Sensor, turn-off variant 1)",0.0277,0.0309,–,–,–,–
"AUCAGCUCGUGAGGAUAUAUAUACAUGAGGAUCACCCAUGUAAGAUCAGGCUUCGGCCAAUGUAUAUAGAAGGCACGAGCUGAU [ENG2/11-A3] (Eterna round: R96, puzzle: Exclusion NG 2)",0.403,0.808,–,–,–,0.535
"ACCCUGUGAGGAUAUUGUGAGCAGACACUUGAGUGCAAUCAUAAGAAGGUACAUGAGGAUCACCCAUGUGAAAC [Eternabot (L1) Solution 90] (Eterna round: R97, puzzle: Exclusion 4)",0.0304,0.0387,–,–,–,–
"ACUCGACAUGAGGAUCACCCAUGUGAGGAUAUGGCCUGUAUGGCGUGAGCUGAAUCAAUCAGAAGGCGCGUGGG [salish99_ex1_r4_053] (Eterna round: R97, puzzle: Exclusion 1)",0.105,0.0448,–,–,–,–
"GCUAGAGCAGGAUAUCUAAAUCCUCACAUGAGGAUCACCCAUGUAGUCGAAAGACUAAGAAGAGAAGGGCUCUAGC [Omei Ex5 E19] (Eterna round: R97, puzzle: Exclusion 5)",0.543,1.29,–,–,–,–
"GCAAGCUUUUGCUCGUCUUACAUGAGGAUCACCCAUGUCGGGUGCUUGCUUGCGUCCGGCGUCUGGGCCGUGGCGGU [-31.9, -55.1 kcal, A 10%] (Eterna round: R97, puzzle: Sensor, turn-off variant 1)",0.0222,0.0216,–,–,–,–
"CGCAACACAUGAGGAUCAAACAUGAGGAUCACCCAUGUAAAACAAGCUUUUUGCUCGUCUUAUAAAUAUGUGUUGCG [Electric Eye 1 - Jieux - Sensor, turn-off variant 1] (Eterna round: R97, puzzle: Sensor, turn-off variant 1)",0.0184,0.021,–,–,–,–

Sequence,apparent KD of MS2 coat protein (input ligand: FMN 200 uM) [µM],apparent KD of MS2 coat protein (input ligand: none) [µM],apparent KD of MS2 coat protein [1] [µM],apparent KD of MS2 coat protein [2] [µM],apparent KD of MS2 coat protein [3] [µM],apparent KD of MS2 coat protein [4] [µM]
"UCUGUUUUGCGAGGAUAUCGACCAUUCCUCUUAACAUGAGGAUCACCCAUGUGCUAAUCCUACAACGAGAAGGCGCUCAUACUC [JR_ExcNG2_Sub066] (Eterna round: R96, puzzle: Exclusion NG 2)",–,–,–,–,–,0.195
GAUGGAGAGCAGGAUAUCUUGGGUAAGCAUCAUAGAGAAGGGCUCACAUGAGGAUCACCCAUGUGGUCCAAGAA [Usbiridi] (puzzle: Exclusion 6),–,–,–,0.0141,–,–
"GGUACUCAAAGAGUACCAAUACGAACAUGAGGAUCACCCAUGUAGGAUAUGCUACUCAAAGAGUAGCAGAAGGAUAUGAUGAAU [Far Half Aptamer v16] (Eterna round: R96, puzzle: Exclusion NG 3)",0.0411,0.0402,–,–,–,0.0308
"AAUCCACAUGAGGAUCACCCAUGUGAGGAUAUGAUACUAUGUACUUCGGUACAUAGUAUCAGAAGGCACAUAAA [Ex1-3: 51] (Eterna round: R96, puzzle: Exclusion 1)",0.153,0.0278,–,–,–,0.0258
"AGUACUAACACGAAAGUGUUAGUACUAUAAGCUUGUGUUACAUGAGGAUCACCCAUGUCCUCAUAAGCUCGUCUUAU [JL-sv3-2.15 mat747 mod] (puzzle: Sensor v3, turn-off variant 2)",–,–,0.0864,0.0318,0.115,–
"AGCCAAGCAGGAUAUAUCCGGGAUAACAUGAGGAUCACCCAUGUGACCGAUUGAUAUCCUAUAGAAGGGCUUGGGA [Mod of ViennaUCT 23 - Jieux - Exclusion 5] (Eterna round: R97, puzzle: Exclusion 5)",0.135,0.0435,–,–,–,–
"GAUCCUCGGGUUAGGAUAUCGAGGAUGUACGUCAGCGAGAAGGAACAUGAGGAUCACCCAUGUUGCUUAGCAAG [BmEX4 A.18] (Eterna round: R97, puzzle: Brourd's mod of Exclusion 4)",0.0211,0.0195,–,–,–,–
"GGUAGUAUGAGUAGUCCUCAUUGAAGAGAUUGGUAAGAUACAUGAGGAUCACCCAUGUUUGAACAAGCUUUUGCUCA [JR_Sv3TOV2_Sub006] (puzzle: Sensor v3, turn-off variant 2)",–,–,0.141,0.053,0.298,–
"UUAUUACAAGCAAGAUCCCACAUGAGGAUCACCCAUGUGCUCGUCUUAUAAGGUACUGUGACGAAAGUCACGGUACC [Sensor 3, v1 - 100] (Eterna round: R96, puzzle: Sensor v3, turn-off variant 1)",0.0263,0.0246,–,–,–,0.547
"UGUCAGAUGGUAGGAUAUCCCUAUCGCGUGUCCCUUUCCUAACAUGAGGAUCACCCAUGUCGGUGGGAGAAGGGCCGUAUGGUG [salish99_ExNG02_R04_036] (Eterna round: R96, puzzle: Exclusion NG 2)",0.0157,0.0154,–,–,–,0.0136
"GCACUGCGAGGAUAUACAUGAGGAUCACCCAUGUGUCGGCAGCCAUGGUAGUACAAAUGUAGAAGGCGCGUAAA [EX3 #50] (Eterna round: R97, puzzle: Exclusion 3)",0.0856,0.587,–,–,–,–
"GACUAGAGAGGAUAUAUUUACAGUGUACCUCGGAUGAUCGCACUUGAGGAUCACCCAAGUAGAAGGCUCGAGGG [EX2 #29] (Eterna round: R97, puzzle: Exclusion 2)",0.011,0.0152,–,–,–,–
CGUCCUCUAGUUAGGAUAUUGUCUCGGAUACGAAACAAGAAGGGACAUGAGGAUCACCCAUGUAAUGAGGACGA [Malc #30 mod 16] (puzzle: Brourd's mod of Exclusion 4),–,–,–,0.0273,–,–
"UGCGCUUAAGGAUAUACUUCGGUGCGCCGAGAGUACGGCUAACUUGAGGAUCACCCAAGUAGAAGGUAAGAAAC [Esleberibe] (Eterna round: R97, puzzle: Exclusion 2)",0.042,1.27,–,–,–,–
AGAAGACAUGAGGAUCACCCAUGUAAGGAUAUCGAAGGUAAGAGAGGAAAGAAGUUAACGAGAAGGUACAGGUG [JR_Exclu1_Sub097] (puzzle: Exclusion 1),–,–,0.101,0.123,0.116,–
